Data: the supplement of paper PMC10724198
± gives the standard deviation of the averaged measurements.

test system: Saccharomyces cerevisiae; experiment: protein stability index of tFT-peptide fusion (C-terminal peptide) (PSI (0-1 scale)); higher = more stable (slower turnover); settings: genetic background: wild type; temperature: 30 C
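Also: PSI is a weighted mean of sequencing reads over stability bins, variants kept only with over 10 reads, mCherry proximal and sfGFP distal, peptide attached via GGGS linker.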

| Sequence | protein stability index |
| --- | --- |
| RVRASGIGRFVE | 0.625 ± 0.033 |
| RVRGTLMLRSYG | 0.64 ± 0.037 |
| RVSIPALKEIAS | 0.737 ± 0.036 |
| RVSLSHPDRCAG | 0.7264 ± 0.0025 |
| RVSRSCCATGEG | 0.599 ± 0.019 |
| RVSSAAGGSIDL | 0.738 ± 0.1 |
| RVSVRGLESGVC | 0.665 ± 0.026 |
| RVSWGSTRLSRA | 0.6427 ± 0.0064 |
| RVVMIYAQWCLP | 0.623 ± 0.011 |
| RVWEGGGGGDGC | 0.664 ± 0.047 |
| RVWEGGRGGDGC | 0.676 ± 0.024 |
| RVWERGGGGDGC | 0.645 ± 0.049 |
| RWGCHFWVGFVG | 0.544 ± 0.046 |
| RWIWTRESTFSN | 0.705 ± 0.016 |
| RWVGVGPEGGVA | 0.678 ± 0.068 |
| RYFCPVLGPVNF | 0.652 ± 0.046 |
| RYFSFNVSSCLD | 0.767 ± 0.048 |
| RYGYCVPNVMRS | 0.778 ± 0.11 |
| RYRRQESYVIIK | 0.766 ± 0.13 |
| SAACQRWGYLRV | 0.68781 ± 0.00045 |
| SAERLKIVNDRI | 0.753 ± 0.055 |
| SAFLRRFLFFQW | 0.572 ± 0.035 |
| SALPPSRLPRSP | 0.713 ± 0.049 |

| Sequence | protein stability index |
| --- | --- |
| SAMSFTSRGVRH | 0.698 ± 0.011 |
| SAPLLLPPLSSP | 0.713 ± 0.023 |
| SAPPPSPAPSPY | 0.677 ± 0.023 |
| SARDVPPPPLTP | 0.733 ± 0.018 |
| SASRSLFLSRSP | 0.6703 ± 0.0023 |
| SASWARRSLPIW | 0.729 ± 0.045 |
| SATIRDILHCRF | 0.8435 ± 0.0021 |
| SAVHRSVPMGGG | 0.666 ± 0.032 |
| SAVSVATVVWSV | 0.705 ± 0.092 |
| SCEERVGEKVMG | 0.6398 ± 0.0014 |
| SCFEFGALSSPI | 0.753 ± 0.034 |
| SCGWRGGWWVMG | 0.691 ± 0.072 |
| SCLPSDRLTYLP | 0.714 ± 0.014 |
| SCLRFCSFGSPF | 0.757 ± 0.12 |
| SCLYPTQILART | 0.631 ± 0.017 |
| SCPPRLVFPRPS | 0.66 ± 0.034 |
| SCRVSFLFFLFE | 0.562 ± 0.016 |
| SCTPEDGRVRYT | 0.66 ± 0.048 |
| SDCPYVYVRVRD | 0.69 ± 0.02 |
| SDDPPLSLVISL | 0.754 ± 0.02 |
| SDMCLGRVFCFL | 0.63 ± 0.069 |
| SDSPSAPPSAYH | 0.62 ± 0.058 |
| SDVCVYVIRDIG | 0.565 ± 0.068 |

| Sequence | protein stability index |
| --- | --- |
| SDVFGGVLSFGF | 0.6613 ± 0.0008 |
| SEAKRMSGSSAN | 0.635 ± 0.041 |
| SEICGAPLARLR | 0.707 ± 0.034 |
| SEILFRSSPFPI | 0.721 ± 0.09 |
| SELEADKRIKRK | 0.739 ± 0.094 |
| SEPADGRDRMAE | 0.6885 ± 0.0054 |
| SERNENKTGKVQ | 0.747 ± 0.11 |
| SESKGAMCQRNA | 0.6475 ± 0.0054 |
| SETMFRLVADIT | 0.715 ± 0.011 |
| SFACVYVPPALF | 0.712 ± 0.025 |
| SFCHWRFSFPKC | 0.666 ± 0.04 |
| SFFGYPCFLLSI | 0.54 ± 0.026 |
| SFFRFRIPLFPS | 0.669 ± 0.065 |
| SFFSVQIQFGLS | 0.617 ± 0.012 |
| SFFVTVAGPFQI | 0.686 ± 0.012 |
| SFGIGFFATRGF | 0.676 ± 0.031 |
| SFGLRCPASRGS | 0.648 ± 0.052 |
| SFGPQFLAPVFS | 0.706 ± 0.031 |
| SFGSVFGGRWCV | 0.672 ± 0.035 |
| SFKSCMCLFCGV | 0.659 ± 0.034 |
| SFLAHSFLPLPP | 0.631 ± 0.069 |
| SFLLPTLVRLSH | 0.65 ± 0.022 |
| SFLPPLFPHPPP | 0.841 ± 0.031 |

| Sequence | protein stability index |
| --- | --- |
| SFLRTRPHAPLP | 0.6363 ± 0.0021 |
| SFLSLYRLTPGR | 0.655 ± 0.048 |
| SFLVLRGSGGKW | 0.713 ± 0.082 |
| SFLVSALASSLA | 0.652 ± 0.019 |
| SFNHAKPPLHPA | 0.683 ± 0.03 |
| SFNVFKINSITV | 0.562 ± 0.019 |
| SFPHSFLFPLFP | 0.751 ± 0.09 |
| SFPLSPAFPSFL | 0.744 ± 0.025 |
| SFPPPLPPSPTP | 0.697 ± 0.036 |
| SFPRPTSALSLN | 0.604 ± 0.075 |
| SFPRYRWRAATE | 0.6704 ± 0.0021 |
| SFPSLLRPPHFS | 0.706 ± 0.041 |
| SFPVPFPRFFPP | 0.714 ± 0.03 |
| SFRDRHRRLCDL | 0.596 ± 0.035 |
| SFRFFVSGFVVL | 0.531 ± 0.009 |
| SFRLRSLVFGFF | 0.597 ± 0.067 |
| SFRQSRLKRRGY | 0.672 ± 0.15 |
| SFSACGEPVPPG | 0.661 ± 0.0077 |
| SFSFPFFFWGLL | 0.592 ± 0.0061 |
| SFSIPTCSVPLT | 0.687 ± 0.096 |
| SFSPLRLPPSLL | 0.724 ± 0.049 |
| SGAGVGWGCSSV | 0.635 ± 0.047 |
| SGAGVNWGVGWG | 0.714 ± 0.029 |

| Sequence | protein stability index |
| --- | --- |
| SGALSDVCVMLL | 0.652 ± 0.026 |
| SGAPAQLSLSSL | 0.6568 ± 0.0032 |
| SGCPGPNVPRVP | 0.705 ± 0.014 |
| SGDGGVGHWVGG | 0.676 ± 0.025 |
| SGEVMGAMVLHE | 0.773 ± 0.12 |
| SGFFGFLLGAYG | 0.5876 ± 0.0031 |
| SGFLLVLRRPRE | 0.655 ± 0.05 |
| SGGGGWVVGGVA | 0.663 ± 0.011 |
| SGGTDMLALRVR | 0.632 ± 0.062 |
| SGHRPPRVAVDS | 0.66 ± 0.044 |
| SGIWLKRVTMYR | 0.7027 ± 0.0047 |
| SGKGRRLVLGSS | 0.6895 ± 0.0039 |
| SGKVNNKEGKWK | 0.686 ± 0.015 |
| SGLAARFGLPIR | 0.674 ± 0.016 |
| SGLPALPRPVWP | 0.491 ± 0.076 |
| SGLPVPFSALRS | 0.718 ± 0.049 |
| SGLRQGRHVYPA | 0.682 ± 0.011 |
| SGPAVLPTFVSP | 0.65 ± 0.077 |
| SGPGGVGPTGGI | 0.6585 ± 0.0055 |
| SGPLPCPPLPAP | 0.676 ± 0.016 |
| SGRIASQACLIW | 0.671 ± 0.045 |
| SGRRRAPPAPSP | 0.732 ± 0.037 |
| SGRSQERMYARW | 0.656 ± 0.012 |

| Sequence | protein stability index |
| --- | --- |
| SGRVRPNSRASP | 0.698 ± 0.073 |
| SGSAPFLRTSKL | 0.685 ± 0.061 |
| SGSPVFLDPPLS | 0.698 ± 0.015 |
| SGTSDDWWPGVA | 0.785 ± 0.038 |
| SGVCGRVGGGLR | 0.622 ± 0.047 |
| SGVLASSCPSSC | 0.659 ± 0.016 |
| SGVVGLGCVPWF | 0.857 ± 0.2 |
| SGWSVGVMGESG | 0.627 ± 0.092 |
| SGYKVYNSVHIL | 0.602 ± 0.026 |
| SHASTPSSRVIP | 0.716 ± 0.01 |
| SHICSFLGICHA | 0.576 ± 0.031 |
| SHIPRNLSPFSS | 0.754 ± 0.056 |
| SHLAYVKWYIGD | 0.6305 ± 0.0042 |
| SHPAPGSPTSPS | 0.67064 ± 0.00027 |
| SHPPFPFAPPPR | 0.674 ± 0.031 |
| SHPPPPPHTPPS | 0.736 ± 0.02 |
| SHRTRPSQTPTQ | 0.643 ± 0.05 |
| SHSPPSPPLPPP | 0.6773 ± 0.0042 |
| SHTIVPNPLKLV | 0.576 ± 0.019 |
| SHTSPSTPPPSP | 0.681 ± 0.0085 |
| SICLLSAALPPP | 0.708 ± 0.029 |
| SIFSFCSNTWFL | 0.747 ± 0.029 |
| SIGACGEVTFGC | 0.7083 ± 0.00078 |

| Sequence | protein stability index |
| --- | --- |
| SIIGRKVNGVSN | 0.711 ± 0.0089 |
| SIIIPATCEYLV | 0.603 ± 0.013 |
| SIKGLVRSIALN | 0.638 ± 0.0064 |
| SILFMYPARNAP | 0.7177 ± 0.0028 |
| SILRLRSVVPAE | 0.6457 ± 0.0027 |
| SIPLIMPLSDYV | 0.675 ± 0.015 |
| SIVGGVVRVLCG | 0.603 ± 0.048 |
| SKGARQRQPPDG | 0.5983 ± 0.0041 |
| SKGFVIMRAACF | 0.572 ± 0.018 |
| SKGLPADSQQPF | 0.729 ± 0.054 |
| SKIKLYKIKKKK | 0.7206 ± 0.0054 |
| SKKARIYIKKRR | 0.683 ± 0.053 |
| SKKLRRNKYRNG | 0.6871 ± 0.0039 |
| SKKRKRNKKKGE | 0.74 ± 0.098 |
| SKQKSKNYEAFK | 0.721 ± 0.039 |
| SKRSYEEGNIVY | 0.672 ± 0.028 |
| SKRYREKIVRNK | 0.677 ± 0.04 |
| SKTEKELSNREF | 0.659 ± 0.025 |
| SLAFIRFPSPSP | 0.668 ± 0.0083 |
| SLAFLPPSLSSS | 0.713 ± 0.056 |
| SLAPPVPPPPLH | 0.67 ± 0.026 |
| SLFNADPYGFNL | 0.711 ± 0.03 |
